# Measurements taken from publication PMC9888277.
# B1: wild-type KHNYN-GFP [human] / ZAP-L (zinc finger antiviral protein, long isoform) [modified: C-terminal S-farnesylation; C-terminal S-farnesylation] [human (endogenous in HeLa)] (parent)
# chain 1: MPTWGARPASPDRFAVSAEAENKVREQQPHVERIFSVGVSVLPKDCPDNPHIWLQLEGPKENASRAKEYLKGLCSPELQDEIHYPPKLHCIFLGAQGFFLDCLAWSTSAHLVPRAPGSLMISGLTEAFVMAQSRVEELAERLSWDFTPGPSSGASQCTGVLRDFSALLQSPGDAHREALLQLPLAVQEELLSLVQEASSGQGPGALASWEGRSSALLGAQCQGVRAPPSDGRESLDTGSMGPGDCRGARGDTYAVEKEGGKQGGPREMDWGWKELPGEEAWEREVALRPQSVGGGARESAPLKGKALGKEEIALGGGGFCVHREPPGAHGSCHRAAQSRGASLLQRLHNGNASPPRVPSPPPAPEPPWHCGDRGDCGDRGDVGDRGDKQQGMARGRGPQWKRGARGGNLVTGTQRFKEALQDPFTLCLANVPGQPDLRHIVIDGSNVAMVHGLQHYFSSRGIAIAVQYFWDRGHRDITVFVPQWRFSKDAKVRESHFLQKLYSLSLLSLTPSRVMDGKRISSYDDRFMVKLAEETDGIIVSNDQFRDLAEESEKWMAIIRERLLPFTFVGNLFMVPDDPLGRNGPTLDEFLKKPARTQGSSKAQHPSRGFAEHGKQQQGREEEKGSGGIRKTRETERLRRQLLEVFWGQDHKVDFILQREPYCRDINQLSEALLSLNF
# chain 2: MADPEVCCFITKILCAHGGRMALDALLQEIALSEPQLCEVLQVAGPDRFVVLETGGEAGITRSVVATTRARVCRRKYCQRPCDNLHLCKLNLLGRCNYSQSERNLCKYSHEVLSEENFKVLKNHELSGLNKEELAVLLLQSDPFFMPEICKSYKGEGRQQICNQQPPCSRLHICDHFTRGNCRFPNCLRSHNLMDRKVLAIMREHGLNPDVVQNIQDICNSKHMQKNPPGPRAPSSHRRNMAYRARSKSRDRFFQGSQEFLASASASAERSCTPSPDQISHRASLEDAPVDDLTRKFTYLGSQDRARPPSGSSKATDLGGTSQAGTSQRFLENGSQEDLLHGNPGSTYLASNSTSAPNWKSLTSWTNDQGARRKTVFSPTLPAARSSLGSLQTPEAVTTRKGTGLLSSDYRIINGKSGTQDIQPGPLFNNNADGVATDITSTRSLNYKSTSSGHREISSPRIQDAGPASRDVQATGRIADDADPRVALVNDSLSDVTSTTSSRVDDHDSEEICLDHLCKGCPLNGSCSKVHFHLPYRWQMLIGKTWTDFEHMETIEKGYCNPGIHLCSVGSYTINFRVMSCDSFPIRRLSTPSSVTKPANSVFTTKWIWYWKNESGTWIQYGEEKDKRKNSNVDSSYLESLYQSCPRGVVPFQAGSRNYELSFQGMIQTNIASKTQKDVIRRPTFVPQWYVQQMKRGPDHQPAKTSSVSLTATFRPQEDFCFLSSKKYKLSEIHHLHPEYVRVSEHFKASMKNFKIEKIKKIENSELLDKFTWKKSQMKEEGKLLFYATSRAYVESICSNNFDSFLHETHENKYGKGIYFAKDAIYSHKNCPYDAKNVVMFVAQVLVGKFTEGNITYTSPPPQFDSCVDTRSNPSVFVIFQKDQVYPQYVIEYTEDKACVIS
# Variants of: B1
# Assay: co-immunoprecipitation (GFP IP, immunoblot for endogenous ZAP, quantified)
# Conditions: with ZAP-L (zinc finger antiviral protein, long isoform) [modified: C-terminal S-farnesylation, HeLa cell lysates, N = 3, parent: 1, read off a plot
row,Variant,ratio to parent
1,chain 1 L676Q F678E,0.38
